How the values were obtained:
EBR-5 = molecular target: T1, EBR-5 (Empedobacter stercoris, UniProt A0ABX1WID8); experiment: beta-lactamase inhibition assay; assay type: biochemical
T1 construct: gene bla; 234-residue precursor; N-terminal signal peptide removed (predicted cleavage between 17 and 18, AFG-QI)

[1] = tested on: C[C@@H](O)[C@H]1C(=O)N2C(C(=O)O)=C(S[C@@H]3CN[C@H](C(=O)N(C)C)C3)[C@H](C)[C@H]12; experiment: steady-state hydrolysis kinetics, Michaelis-Menten fit; assay type: biochemical, Empedobacter stercoris
Source text: (§1) steady-state hydrolysis kinetics, Michaelis-Menten fit on EBR-5

[2] = tested on: CC1(C)S[C@@H]2[C@H](NC(=O)[C@H](N)c3ccccc3)C(=O)N2[C@H]1C(=O)O; experiment: as above; assay type: biochemical, Empedobacter stercoris
Source text: as §1

[3] = tested on: C[C@@H](O)[C@H]1C(=O)N2C(C(=O)O)=C(S[C@@H]3CN[C@H](C(=O)Nc4cccc(C(=O)O)c4)C3)[C@H](C)[C@H]12; experiment: as above; assay type: biochemical, Empedobacter stercoris
Source text: as §1

[4] = tested on: C[C@@H](O)[C@H]1C(=O)N2C(C(=O)O)=C(SCCN=CN)C[C@H]12; experiment: as above; assay type: biochemical, Empedobacter stercoris
Source text: as §1

[5] = tested on: CC(=O)OCC1=C(C(=O)O)N2C(=O)[C@@H](NC(=O)Cc3cccs3)[C@H]2SC1; experiment: as above; assay type: biochemical, Empedobacter stercoris
Source text: as §1

[6] = tested on: CO/N=C(\C(=O)N[C@@H]1C(=O)N2C(C(=O)O)=C(COC(N)=O)CS[C@H]12)c1ccco1; experiment: as above; assay type: biochemical, Empedobacter stercoris
Source text: as §1

[7] = tested on: CO/N=C(\C(=O)N[C@@H]1C(=O)N2C(C(=O)O)=C(COC(C)=O)CS[C@H]12)c1csc(N)n1; experiment: as above; assay type: biochemical, Empedobacter stercoris
Source text: as §1

[8] = tested on: CO[C@@]1(NC(=O)Cc2cccs2)C(=O)N2C(C(=O)O)=C(COC(N)=O)CS[C@@H]21; experiment: as above; assay type: biochemical, Empedobacter stercoris
Source text: as §1

[9] = tested on: CC(C)(O/N=C(\C(=O)N[C@@H]1C(=O)N2C(C(=O)[O-])=C(C[n+]3ccccc3)CS[C@H]12)c1csc(N)n1)C(=O)O; experiment: as above; assay type: biochemical, Empedobacter stercoris
Source text: as §1

[10] = tested on: CO/N=C(\C(=O)N[C@@H]1C(=O)N2C(C(=O)[O-])=C(C[N+]3(C)CCCC3)CS[C@H]12)c1csc(N)n1; experiment: as above; assay type: biochemical, Empedobacter stercoris
Source text: as §1

[11] = tested on: CC1(C)S[C@@H]2[C@H](NC(=O)Cc3ccccc3)C(=O)N2[C@H]1C(=O)O; experiment: as above; assay type: biochemical, Empedobacter stercoris
Source text: as §1

[12] = tested on: C[C@@H](O)[C@H]1C(=O)N2C(C(=O)O)=C(S[C@@H]3CN[C@H](CNS(N)(=O)=O)C3)[C@H](C)[C@H]12; experiment: as above; assay type: biochemical, Empedobacter stercoris
Source text: as §1

[13] = tested on: O=C(Cc1cccs1)N[C@@H]1C(=O)N2C(C(=O)O)=C(/C=C/c3ccc([N+](=O)[O-])cc3[N+](=O)[O-])CS[C@H]12; experiment: as above; assay type: biochemical, Empedobacter stercoris
Source text: as §1

Compound: O=C(O)CN(CCN(CC(=O)O)CC(=O)O)CC(=O)O [EDTA]
- IC50 (EBR-5): 130 µM

Compound: O=C(O)[C@H]1/C(=C/CO)O[C@@H]2CC(=O)N21 [clavulanic acid]
- IC50 (EBR-5): > 2000 µM

Compound: EBR-5 (Empedobacter stercoris)
- Km [1]: 626 ± 61 µM
- kcat [1]: 147 ± 8.3 s⁻¹
- kcat/Km [1]: 236000 M⁻¹ s⁻¹
- Km [2]: 207 ± 21 µM
- kcat [2]: 118 ± 3.3 s⁻¹
- kcat/Km [2]: 572000 M⁻¹ s⁻¹
- Km [3]: 1,507 ± 175 μM
- kcat [3]: 151 ± 13 s⁻¹
- kcat/Km [3]: 100000 M⁻¹ s⁻¹
- Km [4]: 1,218 ± 147 μM
- kcat [4]: 124 ± 10 s⁻¹
- kcat/Km [4]: 102000 M⁻¹ s⁻¹
- Km [5]: 64 ± 6.4 µM
- kcat [5]: 27 ± 0.8 s⁻¹
- kcat/Km [5]: 419000 M⁻¹ s⁻¹
- Km [6]: 19 ± 2.3 µM
- kcat [6]: 2.1 ± 0.07 s⁻¹
- kcat/Km [6]: 111000 M⁻¹ s⁻¹
- Km [7]: 29 ± 3.9 µM
- kcat [7]: 2.8 ± 0.1 s⁻¹
- kcat/Km [7]: 94000 M⁻¹ s⁻¹
- Km [8]: 182 ± 12 µM
- kcat [8]: 1.5 ± 0.04 s⁻¹
- kcat/Km [8]: 8500 M⁻¹ s⁻¹
- Km [9]: 567 ± 76 µM
- kcat [9]: 0.9 ± 0.09 s⁻¹
- kcat/Km [9]: 1600 M⁻¹ s⁻¹
- Km [10]: 1,058 ± 58 μM
- kcat [10]: 0.1 ± 0.01 s⁻¹
- kcat/Km [10]: 100 M⁻¹ s⁻¹
- Km [11]: 116 ± 16 µM
- kcat [11]: 86 ± 2.8 s⁻¹
- kcat/Km [11]: 745000 M⁻¹ s⁻¹
- Km [12]: 1,283 ± 161 μM
- kcat [12]: 145 ± 14 s⁻¹
- kcat/Km [12]: 113000 M⁻¹ s⁻¹
- Km [13]: 15 ± 1.7 µM
- kcat [13]: 18 ± 0.5 s⁻¹
- kcat/Km [13]: 1.17e+06 M⁻¹ s⁻¹

Source: article PMC10101081, “EBR-5, a Novel Variant of Metallo-β-Lactamase EBR from Multidrug-Resistant Empedobacter stercoris” (Microbiology Spectrum, 2023)
